Experimental data from publication PMC7005713, “Revisiting the pH-gated conformational switch on the activities of HisKA-family histidine kinases” (Nature Communications, 2020).
Numbering of substitutions follows the chain as printed. Names and notes keep the numbering of the source.

B1: RR468 wild type, bound to the phosphomimetic BeF3- (natural protein, Thermotoga maritima)
chain: MSKKVLLVDDSAVLRKIVSFNLKKEGYEVIEAENGQIALEKLSEFTPDLIVLDIMMPVMDGFTVLKKLQEKEEWKRIPVIVLTAKGGEEDESLALSLGARKVMRKPFSPSQFIEEVKHLLNE
modifications: phosphomimetic BeF3- bound to the phosphoacceptor D53
notes: Response regulator RR468 of Thermotoga maritima; BeF3- was formed in the crystallisation mixture from 30 mM NaF, 5 mM BeSO4 and 7 mM MgCl2; source: E. coli BL21-CodonPlus(DE3)-RIL, purified (70 °C heat step, HisTrap HP, TEV digestion, Superdex 75)
B2: RR468 D53A (natural protein, Thermotoga maritima)
chain: B1 chain with D53A
notes: Response regulator RR468 of Thermotoga maritima cloned in pET22b, with the phosphoacceptor Asp53 changed to Ala; lacks a Histag; source: E. coli BL21-CodonPlus(DE3)-RIL, purified (70 °C heat step, Mono Q, Superdex 75)
B3: HK853, complete cytoplasmic portion (DHp and CA domains), wild type (domain or fragment, Thermotoga maritima)
chain: VENVTESKELERLKRIDRMKTEFIANISHELRTPLTAIKAYAETIYNSLGELDLSTLKEFLEVIIDQSNHLENLLNELLDFSRLERKSLQINREKVDLCDLVESAVNAIKEFASSHNVNVLFESNVPCPVEAYIDPTRIRQVLLNLLNNGVKYSKKDAPDKYVKVILDEKDGGVLIIVEDNGIGIPDHAKDRIFEQFYRVDSSLTYEVPGTGLGLAITKEIVELHGGRIWVESEVGKGSRFFVWIPKDRAGEDNRQDN
notes: Sensor histidine kinase HK853 of Thermotoga maritima, complete cytoplasmic (catalytic) portion with DHp and CA domains; source: E. coli BL21-CodonPlus(DE3)-RIL, purified (70 °C heat step, HisTrap HP, TEV digestion, Superdex 200)
B4: HK853 H260A, complete cytoplasmic portion (domain or fragment, Thermotoga maritima)
chain: B3 chain with H29A
notes: ADP was added for crystallisation; Same limits as m1; source: E. coli BL21-CodonPlus(DE3)-RIL, purified (70 °C heat step, HisTrap HP, TEV digestion, Superdex 200)

How the values were obtained:
[1] = molecular target: B3; assay: crystal structure; HK853 (10 mg/ml) and RR468 (7.5 mg/ml) with 4 mM ADP, 30 mM NaF, 5 mM BeSO4, 7 mM MgCl2; sitting drops at 21 °C; 1.8 M (NH4)2SO4, 0.1 M sodium citrate; four structures at pH 5.5, 6.5, 7 and 7.5; conditions: both partners purified
[2] = molecular target: B4; assay: crystal structure; HK853 H260A and RR468 D53A with 4 mM ADP; sitting drops at 21 °C; pH 7.5: 1.8 M (NH4)2SO4, 100 mM sodium citrate; pH 5.3: 1.2 M (NH4)2SO4, 100 mM Bis-Tris; two structures; conditions: both partners purified
[3] = molecular target: B3; assay: crystal structure; HK853 wild type and RR468 D53A with 4 mM ADP; sitting drops at 21 °C; pH 7: 1.8 M (NH4)2SO4, 100 mM sodium citrate; pH 5.3: 1.2 M (NH4)2SO4, 100 mM Bis-Tris; two structures; conditions: both partners purified
[4] = molecular target: the molecule itself; assay: crystal structure; HK853 (10 mg/ml) and RR468 (7.5 mg/ml) with 4 mM ADP, 30 mM NaF, 5 mM BeSO4, 7 mM MgCl2; sitting drops at 21 °C; 1.8 M (NH4)2SO4, 0.1 M sodium citrate; four structures at pH 5.5, 6.5, 7 and 7.5
[5] = molecular target: the molecule itself; assay: crystal structure; HK853 H260A and RR468 D53A with 4 mM ADP; sitting drops at 21 °C; pH 7.5: 1.8 M (NH4)2SO4, 100 mM sodium citrate; pH 5.3: 1.2 M (NH4)2SO4, 100 mM Bis-Tris; two structures

B1
binding result [1]: binds

B2
binding result [2]: binds
binding result [3]: binds

B3
binding result [4]: binds

B4
binding result [5]: binds
